As usually defined, the Kd is the equilibrium constant for the complex coming apart. Read a low Kd as higher affinity. As a reminder, the koff is the first-order rate constant of dissociation. Usually kon stands for the rate constant with which the complex forms.

The values below come from patent US20140072563A1 (Regeneron, published 2014).

Assay [1] addresses hErbB3.mmh (soluble monomeric human ErbB3 extracellular domain with C-terminal myc-myc-hexahistidine tag) (human, UniProt P21860 20-642). Put plainly: SPR (Biacore), 25 C, mAb capture format. Here is the method:
(§1) (Tables 2-4). Measurements were conducted on a Biacore 2000 or T100 instrument. […] Kinetic association (kₐ) and dissociation (kd) rate constants were determined by processing and fitting the data to a 1:1 binding model using Scrubber 2.0 curve fitting software.
In general terms: In SPR one partner is held on a chip, and binding of the other changes the refractive index at the surface.

Assay [2] concerns the target T1, hErbB3.mFc (soluble dimeric human ErbB3 extracellular domain fused to mouse Fc) (human).
T1 construct: called dimeric
T1 chain: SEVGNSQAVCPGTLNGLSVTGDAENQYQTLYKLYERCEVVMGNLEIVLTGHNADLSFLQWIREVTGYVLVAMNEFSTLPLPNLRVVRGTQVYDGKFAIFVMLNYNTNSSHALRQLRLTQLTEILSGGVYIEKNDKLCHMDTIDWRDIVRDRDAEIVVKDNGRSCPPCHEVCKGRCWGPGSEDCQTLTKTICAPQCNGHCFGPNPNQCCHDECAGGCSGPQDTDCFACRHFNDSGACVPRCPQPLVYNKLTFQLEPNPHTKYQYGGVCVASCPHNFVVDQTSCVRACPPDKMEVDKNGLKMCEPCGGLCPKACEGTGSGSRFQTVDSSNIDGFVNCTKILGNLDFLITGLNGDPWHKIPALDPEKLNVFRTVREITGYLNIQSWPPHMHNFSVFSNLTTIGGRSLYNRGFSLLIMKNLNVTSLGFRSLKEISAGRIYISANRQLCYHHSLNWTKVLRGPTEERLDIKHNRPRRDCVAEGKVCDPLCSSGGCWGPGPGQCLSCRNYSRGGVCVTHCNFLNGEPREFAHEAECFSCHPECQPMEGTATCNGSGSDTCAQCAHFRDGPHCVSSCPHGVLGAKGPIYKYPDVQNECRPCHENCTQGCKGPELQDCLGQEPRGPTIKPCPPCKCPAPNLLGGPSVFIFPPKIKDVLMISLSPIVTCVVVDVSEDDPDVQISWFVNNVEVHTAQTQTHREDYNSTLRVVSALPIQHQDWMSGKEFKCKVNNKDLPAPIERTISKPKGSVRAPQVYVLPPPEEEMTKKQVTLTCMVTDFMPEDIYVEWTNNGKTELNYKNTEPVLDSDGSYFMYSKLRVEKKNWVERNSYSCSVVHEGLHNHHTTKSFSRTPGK
Nature of the assay: SPR (Biacore), 25 C, mAb capture format. Here is the method:
as §1

Sequence of hErbB3.mmh (soluble monomeric human ErbB3 extracellular domain with C-terminal myc-myc-hexahistidine tag) (P21860 other isoform, or with tags, fused parts or gaps): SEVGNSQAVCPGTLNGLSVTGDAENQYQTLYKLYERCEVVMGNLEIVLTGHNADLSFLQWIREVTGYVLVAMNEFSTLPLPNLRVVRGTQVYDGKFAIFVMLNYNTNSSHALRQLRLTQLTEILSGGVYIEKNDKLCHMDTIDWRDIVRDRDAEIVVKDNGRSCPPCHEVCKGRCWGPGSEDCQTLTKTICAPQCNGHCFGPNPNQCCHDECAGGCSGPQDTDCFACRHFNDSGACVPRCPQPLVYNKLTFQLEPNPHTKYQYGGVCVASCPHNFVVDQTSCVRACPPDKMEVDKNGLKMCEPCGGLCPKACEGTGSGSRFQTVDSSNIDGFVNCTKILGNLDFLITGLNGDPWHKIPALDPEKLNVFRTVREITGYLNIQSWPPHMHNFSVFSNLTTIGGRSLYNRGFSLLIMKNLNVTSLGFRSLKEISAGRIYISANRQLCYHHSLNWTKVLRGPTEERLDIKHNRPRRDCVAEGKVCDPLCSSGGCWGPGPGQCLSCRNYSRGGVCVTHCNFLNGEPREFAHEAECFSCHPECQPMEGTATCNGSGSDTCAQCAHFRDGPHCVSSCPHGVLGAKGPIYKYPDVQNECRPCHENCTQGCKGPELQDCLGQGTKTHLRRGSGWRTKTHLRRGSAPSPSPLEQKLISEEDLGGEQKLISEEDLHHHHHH

B1: H4H2084P (antibody, V domains shown)
VH: QVQLVESGGGVVQSGKSLRLSCVASGFTFSNYGMHWVRQTPGKGLEWVARIWFDGTNKYYTDSVKGRFTLSRDSSKNTLYLQMNSLRAEDTAVYFCAREESLELDHYVMDVWGQGTTVTVSS
VL: AIQMTQSPSSLSASVGDRVTITCRASQDIRDDLGWFQQKPGKAPNLLIYAASSLQSGVPSRFSGSGSGTDFTLTISSLQPEDFATYYCLQDYNYPLTFGGGTKVEIKR
notes: Fully human, human IgG4 Fc (H4H prefix)
In assay [1], B1 gave a Kd of 23.9 pM, a T½ of 2.98 h, a koff of 5.96e-05 s⁻¹ and a kon of 2.49e+06 M⁻¹ s⁻¹. In assay [2], this molecule had a Kd of 1.03 pM, a T½ of 44.9 h, a koff of 3.95e-06 s⁻¹ and a kon of 3.83e+06 M⁻¹ s⁻¹.

B2: H4H2114P (antibody, V domains shown)
VH: QVQLVESGGGVVQPGRSLRLSCAASGFTFSSYGMHWVRQAPGKGLEWVAGMSYDGSSKYYEDSVKGRFTISRDNSKNTLNLQMNSLRVEDTAVYYCAKERDYVEYVDSYYGMDVWGQGTTVTVSA
VL: AIQMTQSPSSLSASVGDRVTITCRASQGIRNDLGWYQQKPGKAPKVLIYAASSLQSGVPSRFSGSGSGTVFTLTISSLQPEDFATYYCLQDYNYPLTFGGGTKVEIKR
notes: as for B1
Turning to B2, in assay [1], the Kd amounted to 106 pM, the T½ stood at 1.8 h, the koff was 9.88e-05 s⁻¹ and the kon was determined as 929000 M⁻¹ s⁻¹. Moreover, in assay [2], the affinity, expressed as Kd, was 5.41 pM; the T½ was 22.2 h; the koff was 7.98e-06 s⁻¹; the association rate constant (kon) came to 1.48e+06 M⁻¹ s⁻¹.

B3: H4H2108P (antibody, V domains shown)
VH: EVQLLESGGDLVQPGGSLRLSCATSGFSFSSDAMNWVRQAPGKGLEWVSGISGSGGNTYYADSVKGRFTISRDISKSTLSLQMNSLRAEDTAVYYCAKEGTNMVRGVVMEDNGMDVWGQGTTVTVSA
VL: DIQMTQSPSSVSASVGDRVTITCRASQGISDYLAWYQQKPGKAPKLLIYAASSLQSGVPSRFSGRGSGTDFTLTISTLQPEDFATYYCQQANSFPLTFGGGTKVDIKR
notes: as for B1
In assay [1], B3 gave a Kd of 41.8 pM, a T½ of 2.18 h, a koff of 8.13e-05 s⁻¹ and an association rate constant (kon) of 1.95e+06 M⁻¹ s⁻¹. In assay [2], this molecule had a Kd of 1.46 pM, a T½ of 41 h, an off-rate (koff) of 4.33e-06 s⁻¹ and an association rate constant (kon) of 2.96e+06 M⁻¹ s⁻¹.

B4: H4H2092P (antibody, V domains shown)
VH: EVQLVESGGGVVRPGGSLRLSCAASGFTFEDYGMNWVRQVPGKGLEWVSGTNWNGGITGYTGSVKGRFTISRDNAKNSLYLQMNSLRAEDTALYHCARDSGDQDAFDIWGQGTMVTVSS
VL: DIQLTQSPSFLSASVGDRVTITCWASQDISSYLAWYQQKPGKAPKLLIYAASTFQSGVPSRFSGSGSGTEFTLTISNLQPEDFATYYCQQLDSYPLSFGGGTKVEIKR
notes: as for B1
In assay [1], B4 came in with a Kd of 27.8 pM, a T½ of 1.72 h, a koff of 0.000103 s⁻¹ and a kon of 3.72e+06 M⁻¹ s⁻¹. In assay [2], this molecule returned a Kd of 1.45 pM, a T½ of 23.8 h, a koff of 7.46e-06 s⁻¹ and a kon of 5.16e+06 M⁻¹ s⁻¹.

B5: H4H2111P (antibody, V domains shown)
VH: QVQLVESGGGVVQPGRSLRLSCAASGFTFNNYGMHWVRQAPGKGLAWVAVMWYSESHKYYADSVKGRFTISRDNSKNTLYLEMNSLRVEDTAIYYCARDLGDPDAFDIWGQGTMVTVSS
VL: DIQLTQSPSFLSASVGDRVTITCWASQGISSYLAWYQQKPGKAPKLLIYGASTLQSGVPSRFSGSGSGTEFTLTISSLQPEDFATYYCQQLNSYPLTFGGGTKVEIKR
notes: as for B1
For B5, in assay [1], the Kd amounted to 53.1 pM, the T½ was found to be 1.52 h, the dissociation rate constant (koff) amounted to 0.000118 s⁻¹ and the kon amounted to 2.21e+06 M⁻¹ s⁻¹. Further, in assay [2], the Kd was found to be 2.49 pM, the T½ was determined as 20.4 h, the koff is 8.69e-06 s⁻¹ and the on-rate constant (kon) was 3.5e+06 M⁻¹ s⁻¹.

B6: H4H2094P (antibody, V domains shown)
VH: EVQLVESGGGLVQPGGSLRLSCAASGFTFSSYDMHWVRQATGKGLEWVSAIGPAGDTYYPVSAMGRFTISRDDAKNSLYLQMNSLRAGDTAVYYCAREGVTIRPDDYFGLDVWGQGTTVTVSA
VL: DIQLTQSPSFLSASVGDRVTITCWASQGISDYLAWYQKKPGKAPQLLIYAATTLQSGVPSRFSGSGSGTEFTLTISSLQPEDFATYYCQQLNTYPLTFGGGTKVEIKR
notes: as for B1
For the molecule B6, in assay [1], the dissociation constant (Kd) was 7.22 pM, the T½ came to 13 h, the koff was 1.37e-05 s⁻¹ and the kon is 1.89e+06 M⁻¹ s⁻¹. In addition, in assay [2], the dissociation constant Kd came out at 0.452 pM, the T½ is 130 h, the koff is 1.37e-06 s⁻¹ and the kon worked out at 3.03e+06 M⁻¹ s⁻¹.

B7: H4H2102P (antibody, V domains shown)
VH: EVQLVESGGGLVQPGGSLRLSCAASGFTFSNYDIHWVRQATGKGLEWVSAIGPAGDTYYSDSVKGRFTISREDAKNSLYLQMSSLRAGDTAVYYCASEGIAVRPDDYYGMDVWGQGTTVTVSA
VL: DIQLTQSPSFLSASVGDRVTITCWASQDITSYLAWYQKKPGKAPKLLIYAASTLQSGVPSRFSGSGSGTEFTLTISSLQPEDFAAYYCQQLNSYPLTFGGGTKVDIKR
notes: as for B1
Regarding B7, in assay [1], the affinity, expressed as Kd, was 55.1 pM; the T½ stood at 3.63 h; the koff worked out at 4.88e-05 s⁻¹; the kon amounted to 886000 M⁻¹ s⁻¹. For the same molecule, in assay [2], the affinity, expressed as Kd, was 1.43 pM; the T½ was 78.7 h; the koff was determined as 2.26e-06 s⁻¹; the association rate constant (kon) stood at 1.58e+06 M⁻¹ s⁻¹.

B8: H4H2140P (antibody, V domains shown)
VH: EVQLVESGGGLVQPGGSLRLSCAASGFSVSYYDMHWVRQVTGKGLEWVSAIGPAGDTYYPGSVKGRFTISREDATNSLYLQIHSLGAGDTAVYYCAREGAIAARPDDYYGMDVWGQGTTVTVSS
VL: DIQLTQSPSFLSASVGDRVTITCWASQDISSYLAWYQQKPGKAPKLLIYAASTLQSGVPSRFSGSGSGTEFTLTISSLQPEDFATYYCQQLNSYPLTFGGGTKVEIKR
notes: as for B1
In assay [1], B8 registered a Kd of 19.8 pM, a T½ of 5.43 h, a koff of 3.27e-05 s⁻¹ and a kon of 1.66e+06 M⁻¹ s⁻¹. In assay [2], this molecule gave a Kd of 0.393 pM, a T½ of 180 h, a koff of 9.86e-07 s⁻¹ and a kon of 2.51e+06 M⁻¹ s⁻¹.

B9: H4H2132P (antibody, V domains shown)
VH: EVQLVESGGGVVRPGGSLRLSCAASGFTFDDYGMSWVRQFPGKGLEWVSSIDGNGGNTGYSDSVKGRFTISRDNAKNSLHLQMNSLRAEDTALYHCARDPDYDSVWGNYRPFDYWGQGTLVTVSS
VL: DIVMTQSPDSLAVSLGERATINCKSSQSVLSSSNDNNYLAWFQQKPGQPPNLLIYWASTRDSGVPDRFSASGSGTDFTLAISSLQAEDVAVYYCHQYYSSPPTFGQGTKVEIKR
notes: as for B1
Regarding B9, in assay [1], the Kd came to 17.7 pM, the T½ is 4.65 h, the dissociation rate constant (koff) stood at 3.81e-05 s⁻¹ and the kon was 2.16e+06 M⁻¹ s⁻¹. In assay [2], this molecule returned a Kd of 0.958 pM, a T½ of 53 h, a dissociation rate constant (koff) of 3.35e-06 s⁻¹ and a kon of 3.49e+06 M⁻¹ s⁻¹.

B10: H4H2138P (antibody, V domains shown)
VH: QVQLQESGPGLVKPSQTLSLTCTVSGGSINSGGYYWSWIRQHPGKGLEWIGYISYSGNTNYNPSLKSRVTISVDTSKNQFSLTLTSVTAADTAVYYCARDSDVDTGLVDGFDVWGQGTMVTVSS
VL: DIVMTQSPSSVSASVGDRVTITCRASQGVSSWLAWYQQKPGKAPKLLIYTTSSLQSGVPSRFSGSGSGTDFTLTISSLQPEDFATYYCQQSNSFPFTFGPGTKVEIK
notes: as for B1
In assay [1], B10 returned a dissociation constant Kd of 20.9 pM, a T½ of 3.55 h, a koff of 5.01e-05 s⁻¹ and a kon of 2.39e+06 M⁻¹ s⁻¹. Also, in assay [2], the affinity, expressed as Kd, was 1.47 pM; the T½ was determined as 32.5 h; the koff was 5.46e-06 s⁻¹; the kon is 3.71e+06 M⁻¹ s⁻¹.

B11: H4H2098P (antibody, V domains shown)
VH: QVQLVESGGGVVQPGRSLRLSCAASGFTFSSFGMHWVRQAPGKGLEWVAVIWYVEINKYHADSVKGRFTISRDDSKNTVYLQMNSLRAEDTAVYYCARDWNDGDYGMDVWGQGTTVTVSS
VL: DIQLTQSPSFLSASVGDRVTITCWASQGISSFLAWYQQKAGKAPRLLIYAASTLQTGVPSRFSGSGSGTEFTLTISSLQPGDFATYHCQQLNSYPYTFGQGTKLEIKR
notes: as for B1
In assay [1], B11 showed a Kd of 69 pM, a T½ of 2.25 h, a koff of 7.89e-05 s⁻¹ and a kon of 1.14e+06 M⁻¹ s⁻¹. In assay [2], this molecule displayed a Kd of 4.06 pM, a T½ of 19.8 h, a koff of 8.97e-06 s⁻¹ and a kon of 2.21e+06 M⁻¹ s⁻¹.
